Substrate in this series: Nc1ncnc2c1ncn2[C@@H]1O[C@H](COP(=O)(O)OP(=O)(O)OP(=O)(O)O)[C@@H](O)[C@H]1O
In words: purified protein. The note with it: 50 mM Tris-HCl pH 8.0, 20 mM MgCl2, 1 mM EDTA, 37 °C.

B1: mBcs1 (full-length mouse Bcs1; mBcs1-His) (Mus musculus) (protein)
chain: MPFSDFVLALKDNPYFGAGFGLVGVGTALAMARKGAQLGLVAFRRHYMITLEVPARDRSYAWLLSWLTRHSTRTQHLSVETSYLQHESGRISTKFEFIPSPGNHFIWYQGKWIRVERNRDMQMVDLQTGTPWESVTFTALGTDRKVFFNILEEARALALQQEEGKTVMYTAVGSEWRTFGYPRRRRPLDSVVLQQGLADRIVKDIREFIDNPKWYIDRGIPYRRGYLLYGPPGCGKSSFITALAGELEHSICLLSLTDSSLSDDRLNHLLSVAPQQSLVLLEDVDAAFLSRDLAVENPIKYQGLGRLTFSGLLNALDGVASTEARIVFMTTNYIDRLDPALIRPGRVDLKEYVGYCSHWQLTQMFQRFYPGQAPSLAENFAEHVLKATSEISPAQVQGYFMLYKNDPMGAVHNIESLR
As to B1, the Km (as a rule, the substrate concentration at which the rate is half of its maximum) is 40 µM.

The record behind these values is paper PMC8482623.
